Literature values as cited in PMC3629029.

Target: calreticulin (Homo sapiens) (UniProt P27797)
Test: SPR

Chain of UniProt P27797 (P27797 18-417): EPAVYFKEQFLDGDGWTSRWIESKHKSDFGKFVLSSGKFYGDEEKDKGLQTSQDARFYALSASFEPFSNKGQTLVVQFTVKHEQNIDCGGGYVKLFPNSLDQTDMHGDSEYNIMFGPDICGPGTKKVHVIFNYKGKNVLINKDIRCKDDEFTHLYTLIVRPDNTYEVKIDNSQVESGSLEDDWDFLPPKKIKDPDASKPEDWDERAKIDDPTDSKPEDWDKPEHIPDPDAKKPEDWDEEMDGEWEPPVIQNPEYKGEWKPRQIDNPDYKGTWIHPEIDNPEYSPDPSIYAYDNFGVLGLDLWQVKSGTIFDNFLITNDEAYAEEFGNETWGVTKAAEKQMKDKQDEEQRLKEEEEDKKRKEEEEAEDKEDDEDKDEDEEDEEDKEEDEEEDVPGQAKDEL

Substance: PDIR (from UniProt Q14554)
- Kd: 16 µM
